Results on 125 sequences are retold here after the supplement of paper PMC9112550, “Optimization of the antimicrobial peptide Bac7 by deep mutational scanning” (BMC Biology, 2022).

In the data set the test system is Escherichia coli TOP10. Nature of the data set: shrunken log2 fold change of peptide-encoding DNA abundance (4.5 h post-induction vs induction); higher = less antimicrobial activity (less host growth inhibition). The following applies: time post-induction: 4.5 h; library: site-saturation at positions 5, 18, 19, 20.
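Further: peptides expressed intracellularly from a pBAD plasmid library in pooled LB shake-flask culture, induced with 0.3% L-arabinose, DNA abundance read by NGS, three biological replicates, DESeq2 with apeglm shrinkage.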

Turning to RRIRCRPPRLPRPRPRPWGRPRP, the “shrunken log2 fold change” value is -0.118. Consider RRIRIRPPRLPRPRPRPNRIPRP, for which the “shrunken log2 fold change” value is -0.481. Under RRIRNRPPRLPRPRPRPVICPRP stands -0.102; under RRIRNRPPRLPRPRPRPIVEPRP, 0.0466; under RRIRIRPPRLPRPRPRPKIIPRP, -0.468. Under RRIRSRPPRLPRPRPRPCQQPRP stands -0.147; under RRIRWRPPRLPRPRPRPYLFPRP, -0.31; under RRIRDRPPRLPRPRPRPTWEPRP, 1.13. Next, RRIRPRPPRLPRPRPRPMCNPRP: -0.075. In the case of RRIRQRPPRLPRPRPRPMMHPRP, the “shrunken log2 fold change” value was -0.252.

As for RRIRSRPPRLPRPRPRPHDKPRP, the “shrunken log2 fold change” value is -0.214. As for RRIRFRPPRLPRPRPRPKCSPRP, the “shrunken log2 fold change” value was -0.0194. As to RRIRYRPPRLPRPRPRPARWPRP, the “shrunken log2 fold change” value is 0.135. Regarding RRIRKRPPRLPRPRPRPDAGPRP, the “shrunken log2 fold change” value is -0.034. Next, RRIRRRPPRLPRPRPRPWNHPRP: -0.0953; RRIRIRPPRLPRPRPRPKLHPRP: -0.0109. As to RRIRARPPRLPRPRPRPQAAPRP, the “shrunken log2 fold change” value was determined as 1.14. Under RRIRLRPPRLPRPRPRPTLYPRP stands 2.28; under RRIRDRPPRLPRPRPRPAKKPRP, -0.00565. Under RRIRIRPPRLPRPRPRPCMQPRP stands -0.0295; under RRIRGRPPRLPRPRPRPSFHPRP, -0.17; under RRIRARPPRLPRPRPRPSYDPRP, -0.52. As to RRIRERPPRLPRPRPRPVTPPRP, the “shrunken log2 fold change” value turned out to be 0.0669. On to RRIRMRPPRLPRPRPRPKERPRP, for which the “shrunken log2 fold change” value stood at 0.0219. As for RRIRMRPPRLPRPRPRPHCRPRP, the “shrunken log2 fold change” value came to 0.274. Under RRIRHRPPRLPRPRPRPRQTPRP stands 0.0257; under RRIRCRPPRLPRPRPRPHSPPRP, -0.422. In the case of RRIRNRPPRLPRPRPRPSPWPRP, the “shrunken log2 fold change” value was found to be 0.0438. Under RRIRVRPPRLPRPRPRPATWPRP stands 0.218; under RRIRWRPPRLPRPRPRPGMRPRP, 0.976.

With RRIRMRPPRLPRPRPRPDGRPRP, the “shrunken log2 fold change” value was -0.00101. RRIRSRPPRLPRPRPRPVMHPRP: the “shrunken log2 fold change” value turned out to be 0.00492.

As for RRIRFRPPRLPRPRPRPIIWPRP, the “shrunken log2 fold change” value was -0.273. Consider RRIRARPPRLPRPRPRPTNNPRP, for which the “shrunken log2 fold change” value amounted to 0.00693. Under RRIRNRPPRLPRPRPRPFHIPRP stands -0.0783. Take RRIRIRPPRLPRPRPRPIEIPRP: the “shrunken log2 fold change” value was -0.437. With RRIRPRPPRLPRPRPRPKEYPRP, the “shrunken log2 fold change” value is -0.356. Take RRIRPRPPRLPRPRPRPAHVPRP: the “shrunken log2 fold change” value came out at 0.0491.

For the sequence RRIRDRPPRLPRPRPRPDHAPRP, the “shrunken log2 fold change” value was -0.00822. Take RRIRKRPPRLPRPRPRPVYGPRP: the “shrunken log2 fold change” value was -0.0742. Next, RRIRIRPPRLPRPRPRPYFCPRP: -1.26; RRIRERPPRLPRPRPRPEPPPRP: 0.595; RRIRSRPPRLPRPRPRPLEFPRP: -0.195. Take RRIRRRPPRLPRPRPRPLKPPRP: the “shrunken log2 fold change” value was determined as 0.314. Take RRIRVRPPRLPRPRPRPCKLPRP: the “shrunken log2 fold change” value was -0.453. Next, RRIRKRPPRLPRPRPRPTDAPRP: 0.05. Under RRIRGRPPRLPRPRPRPMHAPRP stands 1.66. Under RRIRYRPPRLPRPRPRPEELPRP stands -0.0326; under RRIRHRPPRLPRPRPRPWDAPRP, -0.101.

For the sequence RRIRQRPPRLPRPRPRPEKNPRP, the “shrunken log2 fold change” value worked out at 0.172. Under RRIRQRPPRLPRPRPRPMLRPRP stands -0.138.

For the sequence RRIRRRPPRLPRPRPRPKVSPRP, the “shrunken log2 fold change” value was 0.267.

Turning to RRIRPRPPRLPRPRPRPWYRPRP, the “shrunken log2 fold change” value was -0.601. Under RRIRFRPPRLPRPRPRPYSWPRP stands -0.159. Under RRIRWRPPRLPRPRPRPRAWPRP stands 0.124. In the case of RRIRNRPPRLPRPRPRPAAWPRP, the “shrunken log2 fold change” value came to 0.0193. In the case of RRIRSRPPRLPRPRPRPENAPRP, the “shrunken log2 fold change” value is -0.231. For RRIRARPPRLPRPRPRPCMRPRP, the “shrunken log2 fold change” value stood at 0.238. Under RRIRFRPPRLPRPRPRPEKIPRP stands 0.102; under RRIRIRPPRLPRPRPRPLREPRP, 0.255; under RRIRCRPPRLPRPRPRPMDQPRP, 0.337. Under RRIRRRPPRLPRPRPRPNVSPRP stands 0.137; under RRIRRRPPRLPRPRPRPEFKPRP, 0.0599; under RRIRCRPPRLPRPRPRPKAAPRP, 0.115. For RRIRNRPPRLPRPRPRPARSPRP, the “shrunken log2 fold change” value amounted to 0.679. Next, RRIRDRPPRLPRPRPRPEEPPRP: 2.06; RRIRLRPPRLPRPRPRPRYHPRP: -0.274; RRIRPRPPRLPRPRPRPAEKPRP: 0.0387. RRIRSRPPRLPRPRPRPPTFPRP: the “shrunken log2 fold change” value is -0.0599. Consider RRIRIRPPRLPRPRPRPLYSPRP, for which the “shrunken log2 fold change” value is -0.674.

Consider RRIRKRPPRLPRPRPRPFKDPRP, for which the “shrunken log2 fold change” value was -0.0776. Next, RRIRVRPPRLPRPRPRPYMYPRP: -0.588. Regarding RRIRSRPPRLPRPRPRPLEQPRP, the “shrunken log2 fold change” value was 0.0284. As to RRIRTRPPRLPRPRPRPHHGPRP, the “shrunken log2 fold change” value was -0.0105.

RRIRTRPPRLPRPRPRPCFWPRP: the “shrunken log2 fold change” value is 0.0653. In the case of RRIRLRPPRLPRPRPRPHDMPRP, the “shrunken log2 fold change” value was -0.117.

Regarding RRIRNRPPRLPRPRPRPLYFPRP, the “shrunken log2 fold change” value is -0.477. Next, RRIRARPPRLPRPRPRPGCQPRP: 0.168. In the case of RRIRQRPPRLPRPRPRPDPAPRP, the “shrunken log2 fold change” value came out at 0.0492.

Consider RRIRWRPPRLPRPRPRPPHIPRP, for which the “shrunken log2 fold change” value is 0.696. Turning to RRIRFRPPRLPRPRPRPTWRPRP, the “shrunken log2 fold change” value was determined as 0.587. Next, RRIRKRPPRLPRPRPRPSPLPRP: 0.446; RRIRGRPPRLPRPRPRPWRCPRP: 0.0546. As for RRIRQRPPRLPRPRPRPDVTPRP, the “shrunken log2 fold change” value worked out at 0.143. Next, RRIRTRPPRLPRPRPRPPDSPRP: -0.0615; RRIRIRPPRLPRPRPRPPIAPRP: -0.109; RRIRPRPPRLPRPRPRPEQCPRP: -0.0149.

RRIRWRPPRLPRPRPRPFIEPRP: the “shrunken log2 fold change” value is -0.441. In the case of RRIRQRPPRLPRPRPRPGNKPRP, the “shrunken log2 fold change” value was -0.596.

In the case of RRIRRRPPRLPRPRPRPTSIPRP, the “shrunken log2 fold change” value is -0.107. Regarding RRIRKRPPRLPRPRPRPCWYPRP, the “shrunken log2 fold change” value was -0.139. Next, RRIRFRPPRLPRPRPRPYLVPRP: -0.423; RRIRRRPPRLPRPRPRPASWPRP: 0.337; RRIRPRPPRLPRPRPRPLHPPRP: 0.252. Next, RRIRWRPPRLPRPRPRPFKHPRP: -0.405. Under RRIRWRPPRLPRPRPRPDTYPRP stands -0.161; under RRIRKRPPRLPRPRPRPHFDPRP, 0.275. Turning to RRIRARPPRLPRPRPRPKIDPRP, the “shrunken log2 fold change” value amounted to 0.115.

Consider RRIRPRPPRLPRPRPRPHTSPRP, for which the “shrunken log2 fold change” value was -0.622. As to RRIRERPPRLPRPRPRPSTCPRP, the “shrunken log2 fold change” value is -0.324. On to RRIRTRPPRLPRPRPRPLHLPRP, for which the “shrunken log2 fold change” value stood at 0.053. Turning to RRIRLRPPRLPRPRPRPYDMPRP, the “shrunken log2 fold change” value was -0.921. On to RRIRDRPPRLPRPRPRPMSNPRP, for which the “shrunken log2 fold change” value is -0.0263. For the sequence RRIRKRPPRLPRPRPRPPGLPRP, the “shrunken log2 fold change” value amounted to 0.308. Next, RRIRWRPPRLPRPRPRPRMFPRP: 0.182; RRIRHRPPRLPRPRPRPHNNPRP: -0.714. Next, RRIRHRPPRLPRPRPRPKDDPRP: -0.152; RRIRERPPRLPRPRPRPWYAPRP: -0.137. As for RRIRKRPPRLPRPRPRPNVVPRP, the “shrunken log2 fold change” value was found to be 0.0163. On to RRIRSRPPRLPRPRPRPIVLPRP, for which the “shrunken log2 fold change” value is -0.639. RRIRWRPPRLPRPRPRPDFAPRP: the “shrunken log2 fold change” value came to 0.49. Under RRIRGRPPRLPRPRPRPAPAPRP stands 1.14. Under RRIRQRPPRLPRPRPRPAGCPRP stands 0.409. Next, RRIRFRPPRLPRPRPRPNAPPRP: 0.0925. Turning to RRIRTRPPRLPRPRPRPHPVPRP, the “shrunken log2 fold change” value turned out to be 0.1. As to RRIRVRPPRLPRPRPRPIASPRP, the “shrunken log2 fold change” value is 0.171. On to RRIRDRPPRLPRPRPRPHGSPRP, for which the “shrunken log2 fold change” value was found to be 0.208. RRIRYRPPRLPRPRPRPSEFPRP: the “shrunken log2 fold change” value is -0.218. Under RRIRRRPPRLPRPRPRPITLPRP stands -0.0936; under RRIRFRPPRLPRPRPRPSWSPRP, -0.557; under RRIRQRPPRLPRPRPRPGGMPRP, 0.2. Next, RRIRVRPPRLPRPRPRPVGRPRP: 0.542. In the case of RRIRGRPPRLPRPRPRPSENPRP, the “shrunken log2 fold change” value came out at 0.359. Next, RRIRLRPPRLPRPRPRPCWWPRP: 0.26. Next, RRIRARPPRLPRPRPRPYGCPRP: -0.55.
